# T1: Aae Hfq (Aquifex aeolicus, UniProt O66512 1-80)
# T1 sequence: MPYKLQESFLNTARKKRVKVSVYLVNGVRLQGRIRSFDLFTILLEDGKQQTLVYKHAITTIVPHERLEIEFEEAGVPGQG
# How the values were obtained:
# [1] = biological target: T1, Aae Hfq; test: fluorescence polarization; no significant binding detected; FP: 50 mM Tris pH 8.0, 500 mM NaCl, 5 nM FAM-RNA, +/- 10 mM MgCl2, 45 min, room temperature; conditions: protein: recombinant; tags: 6xHis removed by thrombin; residual N-terminal G-2 S-1 H0; chain copies: 6; label: FAM; single strand
# [2] = biological target: T1, Aae Hfq; test: fluorescence polarization; no Mg2+; per hexamer; 4-parameter fit, Hill 2.2; FP: 50 mM Tris pH 8.0, 500 mM NaCl, 5 nM FAM-RNA, +/- 10 mM MgCl2, 45 min, room temperature; conditions: protein: recombinant; tags: 6xHis removed by thrombin; residual N-terminal G-2 S-1 H0; chain copies: 6; label: 5'-FAM; single strand
# [3] = biological target: T1, Aae Hfq; test: fluorescence polarization; 10 mM Mg2+; per hexamer; 4-parameter fit, Hill 2.4; FP: 50 mM Tris pH 8.0, 500 mM NaCl, 5 nM FAM-RNA, +/- 10 mM MgCl2, 45 min, room temperature; conditions: protein: recombinant; tags: 6xHis removed by thrombin; residual N-terminal G-2 S-1 H0; chain copies: 6; label: 5'-FAM; single strand
# [4] = biological target: the molecule itself; test: SEC-MALS; Superdex 200 Increase 10/300 GL, 50 mM Tris pH 8.0, 200 mM NaCl; Aae Hfq alone; monodisperse peak
# [5] = biological target: the molecule itself; test: cross-linking; formaldehyde, indirect (vapor-diffusion) method, 0.6 mg/ml Hfq in 25 mM HEPES pH 8.0, 500 mM NaCl, 310 K, 40 min; read out by MALDI-TOF MS
# [6] = biological target: T1, Aae Hfq; test: fluorescence polarization; no Mg2+; per hexamer; 4-parameter fit, Hill 1.3; FP: 50 mM Tris pH 8.0, 500 mM NaCl, 5 nM FAM-RNA, +/- 10 mM MgCl2, 45 min, room temperature; conditions: protein: recombinant; tags: 6xHis removed by thrombin; residual N-terminal G-2 S-1 H0; chain copies: 6; label: 5'-FAM; single strand
# [7] = biological target: T1, Aae Hfq; test: fluorescence polarization; 10 mM Mg2+; per hexamer; 4-parameter fit, Hill 1.7; FP: 50 mM Tris pH 8.0, 500 mM NaCl, 5 nM FAM-RNA, +/- 10 mM MgCl2, 45 min, room temperature; conditions: protein: recombinant; tags: 6xHis removed by thrombin; residual N-terminal G-2 S-1 H0; chain copies: 6; label: 5'-FAM; single strand
binder,measurement,setting,value
AAAAAA (ssRNA) [FAM-A6],binding result,[1],no binding
AAAAAAAAAAAAAAAAAA (ssRNA) [FAM-A18],Kd,[2],17.4 nM
same,Kd,[3],9.5 nM
"Aquifex aeolicus Hfq (working construct after proteolytic removal of the 6xHis tag, 83 amino acids) (natural protein, three plasmid-derived residues (G-2, S-1, H0) that remain at the N-terminus after thrombin cleavage of the 6xHis tag; 83 residues, 9482.9 Da after tag removal (cleaved at G-2); Hexameric ring; two rings stack into a dodecamer in the P1 crystal, on cross-linking, and in solution with A18 RNA; also called Aae Hfq; (Hfq)6; not shown: His6, N-terminal, cleaved) GSHMPYKLQESFLNTARKKRVKVSVYLVNGVRLQGRIRSFDLFTILLEDGKQQTLVYKHAITTIVPHERLEIEFEEAGVPGQG",stoichiometry N,[4],6
same,stoichiometry N,[5],12
UUUUUU (ssRNA) [FAM-U6],Kd,[6],21.3 nM
same,Kd,[7],2.1 nM
CCCCCC (ssRNA) [FAM-C6],binding result,[1],no binding

# — paper PMC5379935, “Crystal structure and RNA-binding properties of an Hfq homolog from the deep-branching Aquificae: conservation of the lateral RNA-binding mode” (Acta Crystallographica. Section D, Structural Biology, 2016)
